T1: Med23 (human, UniProt Q9ULK4 1-1368)
T1 sequence: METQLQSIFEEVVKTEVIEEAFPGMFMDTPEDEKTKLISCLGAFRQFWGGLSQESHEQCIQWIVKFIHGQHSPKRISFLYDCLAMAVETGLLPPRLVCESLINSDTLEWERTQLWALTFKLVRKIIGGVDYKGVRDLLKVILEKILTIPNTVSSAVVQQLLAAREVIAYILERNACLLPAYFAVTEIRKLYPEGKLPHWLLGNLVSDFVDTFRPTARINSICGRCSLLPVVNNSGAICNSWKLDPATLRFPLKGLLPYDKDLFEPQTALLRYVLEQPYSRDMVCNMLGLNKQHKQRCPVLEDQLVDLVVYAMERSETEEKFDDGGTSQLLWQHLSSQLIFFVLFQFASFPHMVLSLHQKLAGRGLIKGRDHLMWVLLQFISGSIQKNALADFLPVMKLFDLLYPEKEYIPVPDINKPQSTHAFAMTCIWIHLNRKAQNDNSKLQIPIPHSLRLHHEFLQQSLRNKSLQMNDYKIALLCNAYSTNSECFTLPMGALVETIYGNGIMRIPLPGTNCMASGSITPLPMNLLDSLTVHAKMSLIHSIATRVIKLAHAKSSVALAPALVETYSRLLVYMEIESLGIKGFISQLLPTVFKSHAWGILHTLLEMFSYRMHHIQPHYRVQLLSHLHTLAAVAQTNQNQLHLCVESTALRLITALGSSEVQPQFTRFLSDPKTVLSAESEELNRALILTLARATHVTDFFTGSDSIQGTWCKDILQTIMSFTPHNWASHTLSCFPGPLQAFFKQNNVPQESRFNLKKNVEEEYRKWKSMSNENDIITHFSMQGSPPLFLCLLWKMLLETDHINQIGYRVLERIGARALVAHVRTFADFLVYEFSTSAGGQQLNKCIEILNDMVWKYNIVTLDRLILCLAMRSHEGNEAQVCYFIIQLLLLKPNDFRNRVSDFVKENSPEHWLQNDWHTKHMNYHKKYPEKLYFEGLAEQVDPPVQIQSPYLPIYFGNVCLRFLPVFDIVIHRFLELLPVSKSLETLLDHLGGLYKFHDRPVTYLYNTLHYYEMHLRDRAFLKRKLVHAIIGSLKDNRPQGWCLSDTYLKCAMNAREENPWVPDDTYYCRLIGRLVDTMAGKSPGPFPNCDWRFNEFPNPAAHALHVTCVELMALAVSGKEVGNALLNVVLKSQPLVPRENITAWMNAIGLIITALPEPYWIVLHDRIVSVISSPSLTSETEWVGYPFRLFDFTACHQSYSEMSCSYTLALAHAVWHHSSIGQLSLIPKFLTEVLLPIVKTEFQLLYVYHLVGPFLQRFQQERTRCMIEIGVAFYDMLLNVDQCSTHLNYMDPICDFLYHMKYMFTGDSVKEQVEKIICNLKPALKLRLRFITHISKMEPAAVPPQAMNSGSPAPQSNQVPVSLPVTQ


Experiments:
Assay in all cases: cryo-EM structure
[1] = molecular target: RPB1, the largest subunit of RNA polymerase II (human, UniProt P24928 1-1970)
Med23 = molecular target: T1, Med23
Med1 = Med1 (human, UniProt Q15648 1-1581)
Med14 = Med14 (human, UniProt O60244 1-1454)
Chain of Med14 (O60244 whole entry): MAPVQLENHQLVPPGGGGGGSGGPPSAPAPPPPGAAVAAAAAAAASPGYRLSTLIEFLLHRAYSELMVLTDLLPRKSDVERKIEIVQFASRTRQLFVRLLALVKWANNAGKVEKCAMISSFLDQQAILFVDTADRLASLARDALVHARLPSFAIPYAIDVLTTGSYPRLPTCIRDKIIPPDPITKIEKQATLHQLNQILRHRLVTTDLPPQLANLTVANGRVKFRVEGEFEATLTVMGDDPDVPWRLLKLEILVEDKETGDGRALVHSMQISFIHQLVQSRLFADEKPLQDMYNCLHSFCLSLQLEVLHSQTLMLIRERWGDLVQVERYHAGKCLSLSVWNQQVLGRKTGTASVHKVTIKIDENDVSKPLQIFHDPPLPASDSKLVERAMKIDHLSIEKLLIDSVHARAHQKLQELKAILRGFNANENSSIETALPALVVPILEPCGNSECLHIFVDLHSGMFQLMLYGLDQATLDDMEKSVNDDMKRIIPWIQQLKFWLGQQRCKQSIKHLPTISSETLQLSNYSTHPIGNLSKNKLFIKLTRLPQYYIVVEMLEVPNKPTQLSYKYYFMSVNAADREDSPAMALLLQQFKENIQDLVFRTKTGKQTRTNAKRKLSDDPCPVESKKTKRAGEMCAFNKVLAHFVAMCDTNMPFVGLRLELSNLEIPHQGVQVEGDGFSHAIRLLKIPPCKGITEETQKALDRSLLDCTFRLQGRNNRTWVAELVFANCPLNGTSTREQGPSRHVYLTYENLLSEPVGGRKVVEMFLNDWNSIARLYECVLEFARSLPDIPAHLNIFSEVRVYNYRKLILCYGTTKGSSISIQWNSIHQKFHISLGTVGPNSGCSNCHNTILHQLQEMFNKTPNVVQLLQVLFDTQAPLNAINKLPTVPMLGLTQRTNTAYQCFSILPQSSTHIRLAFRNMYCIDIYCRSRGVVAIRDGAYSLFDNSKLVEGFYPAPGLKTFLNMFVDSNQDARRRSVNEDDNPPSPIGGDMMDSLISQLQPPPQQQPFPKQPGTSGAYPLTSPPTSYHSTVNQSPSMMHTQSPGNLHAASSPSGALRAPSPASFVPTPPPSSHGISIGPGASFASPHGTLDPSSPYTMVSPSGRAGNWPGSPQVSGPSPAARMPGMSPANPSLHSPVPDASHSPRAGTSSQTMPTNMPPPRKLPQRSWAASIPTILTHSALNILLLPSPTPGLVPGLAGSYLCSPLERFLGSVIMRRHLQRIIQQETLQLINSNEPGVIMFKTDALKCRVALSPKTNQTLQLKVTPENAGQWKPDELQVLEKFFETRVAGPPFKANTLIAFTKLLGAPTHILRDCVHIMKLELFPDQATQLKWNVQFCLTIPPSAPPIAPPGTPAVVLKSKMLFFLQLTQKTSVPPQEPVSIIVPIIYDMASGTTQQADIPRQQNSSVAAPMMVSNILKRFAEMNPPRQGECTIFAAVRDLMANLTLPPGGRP

Chain of Med1 (Q15648 whole entry): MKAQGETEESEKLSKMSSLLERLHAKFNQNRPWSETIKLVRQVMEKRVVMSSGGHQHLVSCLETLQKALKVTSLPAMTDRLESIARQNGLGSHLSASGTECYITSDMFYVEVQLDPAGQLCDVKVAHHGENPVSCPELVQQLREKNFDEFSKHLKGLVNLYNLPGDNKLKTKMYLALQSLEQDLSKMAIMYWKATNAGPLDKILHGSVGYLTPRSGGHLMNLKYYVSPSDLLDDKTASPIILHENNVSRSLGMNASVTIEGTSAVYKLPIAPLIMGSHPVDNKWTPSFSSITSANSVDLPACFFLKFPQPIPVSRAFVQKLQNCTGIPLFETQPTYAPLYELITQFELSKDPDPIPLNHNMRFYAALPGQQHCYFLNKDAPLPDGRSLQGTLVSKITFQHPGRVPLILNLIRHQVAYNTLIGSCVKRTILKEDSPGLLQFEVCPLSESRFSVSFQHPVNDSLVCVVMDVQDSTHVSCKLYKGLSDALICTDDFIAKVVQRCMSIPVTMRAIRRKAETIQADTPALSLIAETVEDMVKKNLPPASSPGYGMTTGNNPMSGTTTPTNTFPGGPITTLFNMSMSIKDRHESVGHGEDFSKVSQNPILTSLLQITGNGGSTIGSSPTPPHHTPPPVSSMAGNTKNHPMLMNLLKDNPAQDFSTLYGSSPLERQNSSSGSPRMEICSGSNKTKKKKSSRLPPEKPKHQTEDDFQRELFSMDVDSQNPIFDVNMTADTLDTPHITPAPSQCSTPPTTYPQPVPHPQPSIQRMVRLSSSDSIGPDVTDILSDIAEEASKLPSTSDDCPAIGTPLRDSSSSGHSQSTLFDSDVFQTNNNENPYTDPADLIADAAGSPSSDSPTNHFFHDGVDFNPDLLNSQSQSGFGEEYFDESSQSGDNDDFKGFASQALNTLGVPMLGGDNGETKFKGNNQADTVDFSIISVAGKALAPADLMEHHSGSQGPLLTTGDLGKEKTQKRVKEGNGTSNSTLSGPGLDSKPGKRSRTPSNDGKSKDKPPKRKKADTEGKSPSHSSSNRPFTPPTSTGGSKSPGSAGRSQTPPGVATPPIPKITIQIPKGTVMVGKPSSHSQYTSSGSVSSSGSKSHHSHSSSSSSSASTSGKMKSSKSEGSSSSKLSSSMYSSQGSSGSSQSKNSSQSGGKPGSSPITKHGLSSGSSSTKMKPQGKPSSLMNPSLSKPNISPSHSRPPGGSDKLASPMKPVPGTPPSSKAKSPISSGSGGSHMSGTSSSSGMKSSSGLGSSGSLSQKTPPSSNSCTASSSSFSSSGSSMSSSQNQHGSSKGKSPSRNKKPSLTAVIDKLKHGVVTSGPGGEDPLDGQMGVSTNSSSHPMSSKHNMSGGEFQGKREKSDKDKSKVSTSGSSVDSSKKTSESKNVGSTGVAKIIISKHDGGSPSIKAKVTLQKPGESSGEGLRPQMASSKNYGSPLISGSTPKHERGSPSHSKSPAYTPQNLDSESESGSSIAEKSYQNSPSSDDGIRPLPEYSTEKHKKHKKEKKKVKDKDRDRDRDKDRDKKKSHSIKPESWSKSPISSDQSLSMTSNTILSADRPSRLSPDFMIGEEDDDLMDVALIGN

Binder	binding result (Med1)	other results
Med31 (natural protein) MAAAVAMETDDAGNRLRFQLELEFVQCLANPNYLNFLAQRGYFKDKAFVNYLKYLLYWKDPEYAKYLKYPQCLHMLELLQYEHFRKELVNAQCAKFIDEQQILHWQHYSRKRMRLQQALAEQQQQNNTSGK	–	binding result [1]: binds
Med25 (natural protein, human) MVPGSEGPARAGSVVADVVFVIEGTANLGPYFEGLRKHYLLPAIEYFNGGPPAETDFGGDYGGTQYSLVVFNTVDCAPESYVQCHAPTSSAYEFVTWLDGIKFMGGGGESCSLIAEGLSTALQLFDDFKKMREQIGQTHRVCLLICNSPPYLLPAVESTTYSGCTTENLVQQIGERGIHFSIVSPRKLPALRLLFEKAAPPALLEPLQPPTDVSQDPRHMVLVRGLVLPVGGGSAPGPLQSKQPVPLPPAAPSGATLSAAPQQPLPPVPPQYQVPGNLSAAQVAAQNAVEAAKNQKAGLGPRFSPITPLQQAAPGVGPPFSQAPAPQLPPGPPGAPKPPPASQPSLVSTVAPGSGLAPTAQPGAPSMAGTVAPGGVSGPSPAQLGAPALGGQQSVSNKLLAWSGVLEWQEKPKPASVDANTKLTRSLPCQVYVNHGENLKTEQWPQKLIMQLIPQQLLTTLGPLFRNSRMVQFHFTNKDLESLKGLYRIMGNGFAGCVHFPHTAPCEVRVLMLLYSSKKKIFMGLIPYDQSGFVNGIRQVITNHKQVQQQKLEQQQRGMGGQQAPPGLGPILEDQARPSQNLLQLRPPQPQPQGTVGASGATGQPQPQGTAQPPPGAPQGPPGAASGPPPPGPILRPQNPGANPQLRSLLLNPPPPQTGVPPPQASLHHLQPPGAPALLPPPHQGLGQPQLGPPLLHPPPAQSWPAQLPPRAPLPGQMLLSGGPRGPVPQPGLQPSVMEDDILMDLI	–	binding result (Med23): binds
Med17 (natural protein, human) MSGVRAVRISIESACEKQVHEVGLDGTETYLPPLSMSQNLARLAQRIDFSQGSGSEEEEAAGTEGDAQEWPGAGSSADQDDEEGVVKFQPSLWPWDSVRNNLRSALTEMCVLYDVLSIVRDKKFMTLDPVSQDALPPKQNPQTLQLISKKKSLAGAAQILLKGAERLTKSVTENQENKLQRDFNSELLRLRQHWKLRKVGDKILGDLSYRSAGSLFPHHGTFEVIKNTDLDLDKKIPEDYCPLDVQIPSDLEGSAYIKVSIQKQAPDIGDLGTVNLFKRPLPKSKPGSPHWQTKLEAAQNVLLCKEIFAQLSREAVQIKSQVPHIVVKNQIISQPFPSLQLSISLCHSSNDKKSQKFATEKQCPEDHLYVLEHNLHLLIREFHKQTLSSIMMPHPASAPFGHKRMRLSGPQAFDKNEINSLQSSEGLLEKIIKQAKHIFLRSRAAATIDSLASRIEDPQIQAHWSNINDVYESSVKVLITSQGYEQICKSIQLQLNIGVEQIRVVHRDGRVITLSYQEQELQDFLLSQMSQHQVHAVQQLAKVMGWQVLSFSNHVGLGPIESIGNASAITVASPSGDYAISVRNGPESGSKIMVQFPRNQCKDLPKSDVLQDNKWSHLRGPFKEVQWNKMEGRNFVYKMELLMSALSPCLL	–	binding result (Med14): binds
Med9 (natural protein, human) MASAGVAAGRQAEDVLPPTSDQPLPDTKPLPPPQPPPVPAPQPQQSPAPRPQSPARAREEENYSFLPLVHNIIKCMDKDSPEVHQDLNALKSKFQEMRKLISTMPGIHLSPEQQQQQLQSLREQVRTKNELLQKYKSLCMFEIPKE	binds	–

Further lines, with some results ahead:

binding result (Med1)	Binder	other results
binds	Med24 (natural protein, human) MKVVNLKQAILQAWKERWSDYQWAINMKKFFPKGATWDILNLADALLEQAMIGPSPNPLILSYLKYAISSQMVSYSSVLTAISKFDDFSRDLCVQALLDIMDMFCDRLSCHGKAEECIGLCRALLSALHWLLRCTAASAERLREGLEAGTPAAGEKQLAMCLQRLEKTLSSTKNRALLHIAKLEEASSWTAIEHSLLKLGEILANLSNPQLRSQAEQCGTLIRSIPTMLSVHAEQMHKTGFPTVHAVILLEGTMNLTGETQSLVEQLTMVKRMQHIPTPLFVLEIWKACFVGLIESPEGTEELKWTAFTFLKIPQVLVKLKKYSHGDKDFTEDVNCAFEFLLKLTPLLDKADQRCNCDCTNFLLQECGKQGLLSEASVNNLMAKRKADREHAPQQKSGENANIQPNIQLILRAEPTVTNILKTMDADHSKSPEGLLGVLGHMLSGKSLDLLLAAAAATGKLKSFARKFINLNEFTTYGSEESTKPASVRALLFDISFLMLCHVAQTYGSEVILSESRTGAEVPFFETWMQTCMPEEGKILNPDHPCFRPDSTKVESLVALLNNSSEMKLVQMKWHEACLSISAAILEILNAWENGVLAFESIQKITDNIKGKVCSLAVCAVAWLVAHVRMLGLDEREKSLQMIRQLAGPLFSENTLQFYNERVVIMNSILERMCADVLQQTATQIKFPSTGVDTMPYWNLLPPKRPIKEVLTDIFAKVLEKGWVDSRSIHIFDTLLHMGGVYWFCNNLIKELLKETRKEHTLRAVELLYSIFCLDMQQVTLVLLGHILPGLLTDSSKWHSLMDPPGTALAKLAVWCALSSYSSHKGQASTRQKKRHREDIEDYISLFPLDDVQPSKLMRLLSSNEDDANILSSPTDRSMSSSLSASQLHTVNMRDPLNRVLANLFLLISSILGSRTAGPHTQFVQWFMEECVDCLEQGGRGSVLQFMPFTTVSELVKVSAMSSPKVVLAITDLSLPLGRQVAAKAIAAL	–
binds	Med4 (natural protein, human) MAASSSGEKEKERLGGGLGVAGGNSTRERLLSALEDLEVLSRELIEMLAISRNQKLLQAGEENQVLELLIHRDGEFQELMKLALNQGKIHHEMQVLEKEVEKRDSDIQQLQKQLKEAEQILATAVYQAKEKLKSIEKARKGAISSEEIIKYAHRISASNAVCAPLTWVPGDPRRPYPTDLEMRSGLLGQMNNPSTNGVNGHLPGDALAAGRLPDVLAPQYPWQSNDMSMNMLPPNHSSDFLLEPPGHNKENEDDVEIMSTDSSSSSSESD	–
